Assay results as given in patent US20250339569A1 (3B PHARMACEUTICALS, published 2025).
Starred links: 1 amine or outer side, 2 acyl side, 3 side chain; linkers in the order of their positions; H or OH if unused. Positions of bridges follow the written chain, without caps; N, C: chain ends. Non-standard residues stand in square brackets, D forms with d. Primed or numbered codes have the meaning given here. *: point of attachment. Af3(DImAc) = 3-aminophenylalanine acylated on the ring amine with 2-{2,5-dioxo-octahydroimidazo[4,5-d]imidazolidin-1-yl}acetic acid, O=C(CN1C(=O)NC2NC(=O)NC21)Nc1cccc(C[C@H](N[*:1])C(=O)[*:2])c1; Af3(HySuc) = 3-amino-L-phenylalanine acylated on the ring amine with 2-(3,6-dioxo-1,2,3,6-tetrahydropyridazin-4-yl)acetic acid, O=C(Cc1cc(=O)[nH][nH]c1=O)Nc1cccc(C[C@H](N[*:1])C(=O)[*:2])c1; Af3(CMPy) = 3-amino-L-phenylalanine acylated on the ring amine with 5-cyano-1-methyl-1H-pyrazole-4-carboxylic acid, Cn1ncc(C(=O)Nc2cccc(C[C@H](N[*:1])C(=O)[*:2])c2)c1C#N; af3(ac-glu) = lower case: 3-amino-D-phenylalanine, ring amine acylated with N-acetyl-D-glutamic acid, CC(=O)N[C@H](CCC(=O)[*:3])C(=O)Nc1cccc(C[C@@H](N[*:1])C(=O)[*:2])c1; af3(ac-asp) = lower case: 3-amino-D-phenylalanine, ring amine acylated with N-acetyl-D-aspartic acid, CC(=O)N[C@H](CC(=O)[*:3])C(=O)Nc1cccc(C[C@@H](N[*:1])C(=O)[*:2])c1; Aph(5SaPyr2) = 4-amino-L-phenylalanine, ring amine acylated by 5-sulfamoylpyridine-2-carboxylic acid, NS(=O)(=O)c1ccc(C(=O)Nc2ccc(C[C@H](N[*:1])C(=O)[*:2])cc2)nc1; Af3(TzPr) = 3-amino-L-phenylalanine acylated on the ring amine with 3-(1H-1,2,4-triazol-3-yl)propanoic acid, O=C(CCc1nc[nH]n1)Nc1cccc(C[C@H](N[*:1])C(=O)[*:2])c1; Af3(Ac-Glu) = 3-aminophenylalanine acylated on the ring amine with N-acetyl-glutamic acid, CC(=O)N[C@@H](CCC(=O)[*:3])C(=O)Nc1cccc(C[C@H](N[*:1])C(=O)[*:2])c1; Aph(HO-Succinyl) = 4-aminophenylalanine acylated on the ring amine with succinic acid (free carboxyl), O=C(CCC(=O)[*:3])Nc1ccc(C[C@H](N[*:1])C(=O)[*:2])cc1; Aph(4SaBz) = 4-aminophenylalanine, ring amine acylated with 4-sulfamoylbenzoic acid, NS(=O)(=O)c1ccc(C(=O)Nc2ccc(C[C@H](N[*:1])C(=O)[*:2])cc2)cc1; Af3(HO-Dga) = 3-aminophenylalanine, ring amine acylated with carboxymethoxy-acetic acid, O=C(COCC(=O)[*:3])Nc1cccc(C[C@H](N[*:1])C(=O)[*:2])c1; Af3(HYDAc) = 3-aminophenylalanine, ring amine acylated with hydantoin-5-acetic acid, O=C(CC1NC(=O)NC1=O)Nc1cccc(C[C@H](N[*:1])C(=O)[*:2])c1; Aph(SaPr) = 4-amino-L-phenylalanine, ring amine acylated by 3-sulfamoylpropanoic acid, NS(=O)(=O)CCC(=O)Nc1ccc(C[C@H](N[*:1])C(=O)[*:2])cc1; 3MeBn″ = 3-methylbenzylidene, m-xylene unit (from alpha,alpha'-dibromo-m-xylene) joined to both Cys S by thioether linkages; Af3(Ac-Asp) = 3-aminophenylalanine acylated on the ring amine with N-acetyl-aspartic acid; Phe(3-NHCO(CH2)3SO2NH2) = N[C@@H](Cc1cccc(NC(=O)CCCS(N)(=O)=O)c1)C(=O)O; APAc″ = 2-(4-(amino)piperidin-1-yl)acetic acid, NC1CCN(CC(=O)*)CC1; DOTA = O=C(O)CN1CCN(CC(=O)O)CCN(CC(=O)*)CCN(CC(=O)O)CC1; PPAc = 4-carboxymethyl piperazine linker; mXylylene = c1cc(C[*:1])cc(C[*:2])c1; N4BzlCONH2 = not defined here; N4BzlCN = not defined here; N4BzlCl = not defined here; NH3PhSa = not defined here; NH4PhSa = not defined here; NOAzOMe = not defined here; N4Inda = not defined here; Pip = O=C(O)[C@@H]1CCCCN1; PPAc″ = not defined here; APAc = not defined here; Dap = NC[C@H](N)C(=O)O; AEEA = NCCOCCOCC(=O)O; Sar = CNCC(=O)O

B1: 3BP-4368 (peptide)
peptide: {DOTA-APAc}-VYCE[dP]D[Af3(HO-Dga)]LTWSC-NH2
modifications: linker 3-12 via 3MeBn″; reading uncertain
B2: 3BP-4371 (peptide)
peptide: {DOTA-APAc}-VYCE[dP]D[Af3(HYDAc)]LTWSC-NH2
modifications: linker 3-12 via mXylylene; reading uncertain
B3: 3BP-4387 (peptide)
peptide: {DOTA-APAc}-VYCE[dP]E(N4Inda)WLTWSC-NH2
modifications: linker 3-12 via mXylylene; reading uncertain
B4: 3BP-4398 (peptide)
peptide: {DOTA-APAc}-VYCE[dP]D[Aph(4SaBz)]LTWSC-NH2
modifications: linker 3-12 via mXylylene; reading uncertain
B5: 3BP-4441 (peptide)
peptide: {DOTA-APAc}-VYCE[dP]E(NH3PhSa)WLTWSC-NH2
modifications: linker 3-12 via mXylylene; reading uncertain
B6: 3BP-4442 (peptide)
peptide: {DOTA-APAc}-VYCE[dP]E(NH4PhSa)WLTWSC-NH2
modifications: linker 3-12 via mXylylene; reading uncertain
B7: 3BP-4446 (peptide)
peptide: {DOTA-PPAc″}-YCE[dP]DWLTWSC-NH2
modifications: linker 2-11 via mXylylene; reading uncertain
B8: 3BP-4456 (peptide)
peptide: {DOTA}-[Pip]YCE[dP]D[Phe(3-NHCO(CH2)3SO2NH2)]LTWSC-NH2
modifications: linker 3-12 via mXylylene
SMILES: CC(C)C[C@@H]1NC(=O)[C@H](Cc2cccc(NC(=O)CCCS(N)(=O)=O)c2)NC(=O)[C@H](CC(=O)O)NC(=O)[C@H]2CCCN2C(=O)[C@H](CCC(=O)O)NC(=O)[C@@H](NC(=O)[C@H](Cc2ccc(O)cc2)NC(=O)[C@@H]2CCCCN2C(=O)CN2CCN(CC(=O)O)CCN(CC(=O)O)CCN(CC(=O)O)CC2)CSCc2cccc(c2)CSC[C@@H](C(N)=O)NC(=O)[C@H](CO)NC(=O)[C@H](Cc2c[nH]c3ccccc23)NC(=O)[C@H]([C@@H](C)O)NC1=O
B9: 3BP-4498 (peptide)
peptide: {DOTA-PPAc}-DCE[dP]D[Aph(SaPr)]LTW[Dap]C-NH2
modifications: lactam 1-10; linker 2-11 via mXylylene
B10: 3BP-4480 (peptide)
peptide: {DOTA-PPAc″}-QCE[dP]D[Aph(5SaPyr2)]LTWSC-NH2
modifications: linker 2-11 via mXylylene; reading uncertain
B11: 3BP-4333 (peptide)
peptide: {DOTA-APAc″}-VYCE[dP]E(N4BzlSO2Me)WLTWSC-NH2
modifications: linker 3-12 via mXylylene
B12: 3BP-4334 (peptide)
peptide: {DOTA-APAc″}-VYCE[dP]E(N4BzlCl)WLTWSC-NH2
modifications: linker 3-12 via mXylylene; reading uncertain
B13: 3BP-4339 (peptide)
peptide: {DOTA-APAc″}-VYCE[dP]E(NOAzOMe)WLTWSC-NH2
modifications: linker 3-12 via mXylylene; reading uncertain
B14: 3BP-4340 (peptide)
peptide: {DOTA-APAc″}-VYCE[dP]E(N4BzlCN)WLTWSC-NH2
modifications: linker 3-12 via mXylylene; not fully specified; reading uncertain
B15: 3BP-4345 (peptide)
peptide: {DOTA-APAc″}-VYCE[dP]E(N4BzlCONH2)WLTWSC-NH2
modifications: linker 3-12 via mXylylene; not fully specified; reading uncertain
B16: 3BP-4262 (peptide)
peptide: {DOTA-AEEA}-DCE[dP]DWLTW[Dap]C-NH2
modifications: lactam 10-1; linker 2-11 via mXylylene
SMILES: CC(C)C[C@@H]1NC(=O)[C@H](Cc2c[nH]c3ccccc23)NC(=O)[C@H](CC(=O)O)NC(=O)[C@H]2CCCN2C(=O)[C@H](CCC(=O)O)NC(=O)[C@@H]2CSCc3cccc(c3)CSC[C@@H](C(N)=O)NC(=O)[C@H](CNC(=O)C[C@H](NC(=O)COCCOCCNC(=O)CN3CCN(CC(=O)O)CCN(CC(=O)O)CCN(CC(=O)O)CC3)C(=O)N2)NC(=O)[C@H](Cc2c[nH]c3ccccc23)NC(=O)[C@H]([C@@H](C)O)NC1=O
B17: 3BP-4305 (peptide)
peptide: {DOTA-APAc″}-VYCE[dP]D[Af3(CMPy)]LTWSC-NH2
modifications: linker 3-12 via mXylylene
B18: 3BP-4322 (peptide)
peptide: {DOTA-APAc″}-VYCE[dP]D[Af3(HySuc)]LTWSC-NH2
modifications: linker 3-12 via mXylylene
B19: 3BP-4324 (peptide)
peptide: {DOTA-APAc″}-VYCE[dP]D[Af3(TzPr)]LTWSC-NH2
modifications: linker 3-12 via mXylylene
B20: 3BP-4341 (peptide)
peptide: {DOTA-APAc″}-VYCE[dP]D[Af3(DImAc)]LTWSC-NH2
modifications: linker 3-12 via mXylylene
B21: 3BP-4356 (peptide)
peptide: {DOTA-APAc″}-VYCE[dP]D[Aph(HO-Succinyl)]LTWSC-NH2
modifications: linker 3-12 via mXylylene
B22: 3BP-4361 (peptide)
peptide: {DOTA-APAc″}-VYCE[dP]D[Af3(Ac-Glu)]LTWSC-NH2
modifications: linker 3-12 via mXylylene
B23: 3BP-4362 (peptide)
peptide: {DOTA-APAc″}-VYCE[dP]D[af3(ac-glu)]LTWSC-NH2
modifications: linker 3-12 via mXylylene; not fully specified
B24: 3BP-4363 (peptide)
peptide: {DOTA-APAc″}-VYCE[dP]D[Af3(Ac-Asp)]LTWSC-NH2
modifications: linker 3-12 via mXylylene
B25: 3BP-4364 (peptide)
peptide: {DOTA-APAc″}-VYCE[dP]D[af3(ac-asp)]LTWSC-NH2
modifications: linker 3-12 via mXylylene; not fully specified
B26: 3BP-3325 (peptide)
peptide: Ac-CE[Sar]DWLTWQC-NH2
modifications: linker 1-10 via mXylylene
SMILES: CC(=O)N[C@H]1CSCc2cccc(c2)CSC[C@@H](C(N)=O)NC(=O)[C@H](CCC(N)=O)NC(=O)[C@H](Cc2c[nH]c3ccccc23)NC(=O)[C@H]([C@@H](C)O)NC(=O)[C@H](CC(C)C)NC(=O)[C@H](Cc2c[nH]c3ccccc23)NC(=O)[C@H](CC(=O)O)NC(=O)CN(C)C(=O)[C@H](CCC(=O)O)NC1=O
notes: also called Ac-[Cys(3MeBn)-Glu-Nmg-Asp-Trp-Leu-Thr-Trp-Gln-Cys]-NH2

target: T1, Fc-fusion protein of human carbonic anhydrase IX (human, UniProt Q16790 38-414); assay: SPR, captured hCAIX-Fc; pKD category A: >8.0

Binder	pKD [pkd]
B1	> 8
B2	> 8
B3	> 8
B4	> 8
B5	> 8
B6	> 8
B7	> 8
B8	> 8
B9	> 8

target: T1, Fc-fusion protein of human carbonic …; assay: SPR, captured hCAIX-Fc; t1/2 category A: >15.0 min

Binder	t1/2 (half-life of the complex, SPR) [min]
B3	> 15
B5	> 15
B6	> 15
B8	> 15
B9	> 15

target: T1, Fc-fusion protein of human carbonic …; assay: SPR, captured hCAIX-Fc; t1/2 category C: 2.1-5.0 min
Method: Stock solutions of test compounds were prepared by dissolving each compound in DMSO. DMSO stock solution were diluted 1:1000 in Running Buffer without DMSO. […] SPR binding analyses were performed in Single Cycle Kinetic (SCK) mode at 25° C.
For each test compound, SPR raw data in the form of resonance units (RU) were plotted as sensorgrams using the Biacore™ T200 control software. The signal from the blank sensorgram was subtracted from that of the test compound sensorgram (blank corrected). The blank corrected sensorgram was corrected for baseline drift by subtracting the sensorgram of a SCK run without the test compound (running buffer only). […] Raw data and fit results were imported as text files in IDBS. The pKD value (negative decadic logarithm of dissociation constant) was calculated in the IDBS excel template.

Binder	t1/2 (half-life of the complex, SPR) [min]
B1	2.1 to 5
B2	2.1 to 5
B4	2.1 to 5
B7	2.1 to 5
B10	2.1 to 5

target: human carbonic anhydrase IX (CAIX) (human, UniProt Q16790 38-459); assay: FACS competition, HT-29 cells, tracer 3BP-4149; pIC50 category B: 7.1-8.0
Method: (§1) CAIX-expressing human HT-29 colorectal cancer cells (DSMZ, RRID: CVCL_0320) were cultured in McCoys's 5A modified medium (Biochrom, #F1015) including 10% fetal calf serum (FCS), 2 mM L-glutamine, 100 U/ml penicillin and 100 μg/mL streptomycin. Cells were detached with Accutase (Biolegend, #423201) and washed in FACS buffer (PBS including 1% FCS). Cells were diluted in FACS buffer to a final concentration of 500.000 cells per ml. 200 μL of the cell suspension were transferred to a u-shaped non-binding 96-well plate (Greiner) and cells were washed in ice-cold FACS buffer.
(§2) When biotinylated compounds were used an additional incubation step with 1 μg/mL APC-Streptavidin (Miltenyi; #130-106-791) in 50 μL FACS buffer for 30 minutes on ice was performed.
(§3) Cells were washed twice with ice-cold FACS buffer and analyzed in an Attune NxT flow cytometer (Thermo Fisher). Median fluorescence intensities (MFI) of the APC/Cy5-channel were calculated by Attune NxT software.

Binder	pIC50 [pic50]
B1	7.1 to 8
B2	7.1 to 8
B3	7.1 to 8
B4	7.1 to 8
B5	7.1 to 8
B6	7.1 to 8
B7	7.1 to 8
B8	7.1 to 8
B10	7.1 to 8
B9	7.1 to 8

target: human carbonic anhydrase 9 (CAIX) (human, UniProt Q16790 38-459); assay: FACS competition on HT-29 cells, competitor tracer 3BP-4149; category B = pIC50 7.1-8.0
Method: as §1, §2, §3

Binder	pIC50 [pic50]
B11	7.1 to 8
B12	7.1 to 8
B13	7.1 to 8
B14	7.1 to 8
B15	7.1 to 8
B16	7.1 to 8
B17	7.1 to 8
B18	7.1 to 8
B19	7.1 to 8
B20	7.1 to 8
B21	7.1 to 8
B22	7.1 to 8
B23	7.1 to 8
B24	7.1 to 8
B25	7.1 to 8

target: human carbonic anhydrase 9 (CAIX) (human, UniProt Q16790 38-459); assay: FACS competition on HT-29 cells against tracer 3BP-2776; pIC50 category C = pIC50 6.1-7.0
Method: as §1, §2, §3

Binder	pIC50 [pic50]
B26	6.1 to 7
